Results: patent US20230295343A1 (NINGBO COMGEN BIOTECH, published 2023)

Assays:
[1] = target: T1, human FXII (human, UniProt P00748 20-615); assay: ELISA, plate coated with human FXII at 1 ug/mL, nanobody dilutions, anti-6xHis-HRP
T1 construct: Bought protein; also called factor XII; natural human FXII
T1 sequence (looked up): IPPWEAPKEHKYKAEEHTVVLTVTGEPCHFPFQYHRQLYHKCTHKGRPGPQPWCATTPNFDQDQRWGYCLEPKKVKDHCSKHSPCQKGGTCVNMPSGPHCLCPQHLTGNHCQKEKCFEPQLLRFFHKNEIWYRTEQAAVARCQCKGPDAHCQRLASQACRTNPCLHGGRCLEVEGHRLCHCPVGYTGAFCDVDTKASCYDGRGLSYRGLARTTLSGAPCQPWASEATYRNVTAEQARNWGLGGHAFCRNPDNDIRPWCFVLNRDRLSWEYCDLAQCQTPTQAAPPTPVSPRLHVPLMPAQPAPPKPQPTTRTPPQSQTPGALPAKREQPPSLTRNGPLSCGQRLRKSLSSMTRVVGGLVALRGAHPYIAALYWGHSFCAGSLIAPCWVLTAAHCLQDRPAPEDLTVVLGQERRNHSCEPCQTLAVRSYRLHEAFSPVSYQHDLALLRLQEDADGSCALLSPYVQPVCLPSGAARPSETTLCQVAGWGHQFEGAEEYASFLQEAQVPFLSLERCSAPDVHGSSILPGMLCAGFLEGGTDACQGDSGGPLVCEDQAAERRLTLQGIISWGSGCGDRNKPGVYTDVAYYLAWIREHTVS
Procedure: The titer detection method in Example 1 was as follows: An ELISA plate was coated with human FXII at a protein concentration of 1 μg/mL overnight at 4° C.; then the ELISA plate was washed with PBST buffer and blocked with 5% skimmed milk powder at room temperature for 2 h; the ELISA plate was washed with PBST buffer (which was prepared with 1 L of PBS and 500 μL of Tween 20), then nanobodies at different dilutions were added, and the ELISA plate was incubated for 2 h at room temperature; the ELISA plate was washed with PBST buffer, then an […] (Abcam) was added, and the ELISA plate was incubated for 1 h at room temperature in the dark; the ELISA plate was washed with PBST buffer, a tetramethylbenzidine (TMB) (R&D Systems) substrate solution was added, and a chromogenic reaction was conducted for 5 min to 10 min; and a stop solution (sulfuric acid with a concentration of 2 M) was added, and an OD value of each well was determined at 450 nm by a microplate reader.

[2] = target: T2, biotinylated FXII protein (UniProt P00748 20-615, biotinylated (sites not given)); assay: BLI (Fortebio Octet), biotinylated FXII loaded on the biosensor, N4-38 at 50, 20 and 10 ug/mL, 37 C
T2 sequence (looked up): T1 sequence (looked up)
Procedure: (1) A Fortebio Octet special solution M (a PBST solution including BSA with a mass fraction of 0.5%) was prepared, filtered through a 0.22 μm filter membrane, and stored at 4° C. for later use; (2) a biotinylated FXII protein was diluted to 10 μg/mL, a nanobody N4-38 was diluted to 50 μg/mL, 20 μg/mL, and 10 μg/mL, and resulting samples each were added; (3) a biosensor was placed in a corresponding clean well of a spare box, and […] of the Fortebio Octet special solution M was added to each well corresponding to the biosensor; (4) a program was set as follows: first stage Baseline: 60 s, second stage Loading: 200 s, third stage Baseline 2: 100 s, fourth stage Association: 300 s, fourth stage Dissociation: 300 s, and reaction temperature during the whole process: 37° C.; and (5) after a reaction was completed, data analysis was conducted by software.

B1: nanobody N4-44 (VHH)
VHH: QVQLVESGGGLVQAGGSLRLSCAASGSDFSINAMGWYRQAPGKERELVATISSGGSTYYADSVKGRFTISRDNAKNTLYLHMNTLKPEDTAMYYCAILKGATPGYWGQGTQVTVSS
notes: not shown: 6xHis tag from vector PET26b
titer [1]: 220

B2: nanobody N4-38 (VHH)
VHH: QVQLVESGGGLVQAGGSLRLSCAASGRTGNAYRMGWFRQAPGKEREFVAAISWNGDSTNYADSVKGRFTISRDNAKNTVYLQMNSLKPEDTAVYYCAVVKGIGVPPNMYDYWGQGTQVTVSS
notes: Alpaca nanobody expressed in E. coli from PET26b; also called N38; N4-38 antibody
titer [1]: 220
Kd [2]: 3.07 nM

B3: nanobody A5-8 (VHH)
VHH: QVQLVESGGGLAQVGGSLRLSCAASGSTFSFKSMGWYREAPGNQRELVAAISSKGIMTNSDSVKGRFTISRDNAKNTVDLHLNNLKPEDTAVYYCNVVEVGVGGLVNVYWGQGTQVTVSS
notes: as for B1
titer [1]: 220
